Assay results from US20100056456A1.

Molecular target: human N-type calcium channel (human) (UniProt Q00975)
Experiment: cell-based or functional assay

human N-type calcium channel (human), sequence (Q00975 whole entry): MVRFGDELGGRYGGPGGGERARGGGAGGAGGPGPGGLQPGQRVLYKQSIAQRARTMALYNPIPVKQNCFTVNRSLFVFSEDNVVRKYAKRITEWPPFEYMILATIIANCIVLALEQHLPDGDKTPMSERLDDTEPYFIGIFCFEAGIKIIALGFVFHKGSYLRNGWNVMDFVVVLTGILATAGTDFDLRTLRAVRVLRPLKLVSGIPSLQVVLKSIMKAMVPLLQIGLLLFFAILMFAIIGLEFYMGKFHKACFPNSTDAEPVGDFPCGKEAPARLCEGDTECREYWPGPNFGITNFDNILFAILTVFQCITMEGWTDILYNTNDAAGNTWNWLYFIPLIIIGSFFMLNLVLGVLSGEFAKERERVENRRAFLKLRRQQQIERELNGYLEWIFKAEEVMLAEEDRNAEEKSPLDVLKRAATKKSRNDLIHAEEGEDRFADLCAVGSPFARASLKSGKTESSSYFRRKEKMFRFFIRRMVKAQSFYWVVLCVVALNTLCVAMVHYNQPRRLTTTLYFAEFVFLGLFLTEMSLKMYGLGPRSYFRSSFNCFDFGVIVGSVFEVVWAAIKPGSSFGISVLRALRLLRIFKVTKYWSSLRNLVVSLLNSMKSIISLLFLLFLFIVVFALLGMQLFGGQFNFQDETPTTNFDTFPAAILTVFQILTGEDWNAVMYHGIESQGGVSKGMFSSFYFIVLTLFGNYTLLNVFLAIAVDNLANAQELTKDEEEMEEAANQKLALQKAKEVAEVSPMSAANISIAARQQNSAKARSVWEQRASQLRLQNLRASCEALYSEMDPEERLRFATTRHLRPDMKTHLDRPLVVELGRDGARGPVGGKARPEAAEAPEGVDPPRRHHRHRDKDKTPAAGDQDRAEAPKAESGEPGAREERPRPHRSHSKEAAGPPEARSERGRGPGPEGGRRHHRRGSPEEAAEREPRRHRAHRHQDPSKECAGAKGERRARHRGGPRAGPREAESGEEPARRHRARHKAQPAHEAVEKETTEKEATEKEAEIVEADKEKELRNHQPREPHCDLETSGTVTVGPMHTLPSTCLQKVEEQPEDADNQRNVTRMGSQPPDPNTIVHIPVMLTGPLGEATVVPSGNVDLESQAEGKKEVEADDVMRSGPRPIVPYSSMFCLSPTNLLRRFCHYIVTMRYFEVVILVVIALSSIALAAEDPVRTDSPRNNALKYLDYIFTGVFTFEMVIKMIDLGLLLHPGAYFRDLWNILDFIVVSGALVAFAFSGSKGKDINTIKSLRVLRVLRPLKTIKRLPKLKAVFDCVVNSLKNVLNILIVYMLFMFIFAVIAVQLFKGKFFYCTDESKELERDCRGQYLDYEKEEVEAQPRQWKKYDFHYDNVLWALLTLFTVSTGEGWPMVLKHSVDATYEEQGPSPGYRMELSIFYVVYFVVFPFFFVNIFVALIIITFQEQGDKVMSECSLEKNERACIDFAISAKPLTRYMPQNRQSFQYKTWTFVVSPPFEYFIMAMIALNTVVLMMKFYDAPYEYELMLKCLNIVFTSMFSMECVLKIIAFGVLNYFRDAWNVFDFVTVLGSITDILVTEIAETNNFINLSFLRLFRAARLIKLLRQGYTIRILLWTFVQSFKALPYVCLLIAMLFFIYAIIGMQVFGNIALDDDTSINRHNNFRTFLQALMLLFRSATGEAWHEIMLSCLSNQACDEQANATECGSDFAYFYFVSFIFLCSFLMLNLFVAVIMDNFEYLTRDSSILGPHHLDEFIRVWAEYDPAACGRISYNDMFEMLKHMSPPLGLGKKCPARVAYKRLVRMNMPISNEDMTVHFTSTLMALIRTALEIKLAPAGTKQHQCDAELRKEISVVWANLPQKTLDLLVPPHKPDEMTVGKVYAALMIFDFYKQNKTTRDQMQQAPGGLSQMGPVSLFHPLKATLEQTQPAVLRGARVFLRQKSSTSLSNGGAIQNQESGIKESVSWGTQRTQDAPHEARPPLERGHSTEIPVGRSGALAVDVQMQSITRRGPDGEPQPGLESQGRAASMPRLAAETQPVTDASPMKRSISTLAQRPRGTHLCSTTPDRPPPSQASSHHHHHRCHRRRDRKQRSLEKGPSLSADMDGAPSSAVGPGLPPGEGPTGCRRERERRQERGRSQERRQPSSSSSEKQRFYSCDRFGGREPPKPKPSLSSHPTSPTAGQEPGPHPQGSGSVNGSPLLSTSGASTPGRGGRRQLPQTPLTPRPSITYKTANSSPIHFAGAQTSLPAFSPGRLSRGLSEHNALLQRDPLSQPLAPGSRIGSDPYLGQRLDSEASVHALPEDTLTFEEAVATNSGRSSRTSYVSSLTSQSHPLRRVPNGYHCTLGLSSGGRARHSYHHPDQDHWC

ω-conotoxin FVIA (peptide)
IC50 of dose-inhibition curve, whole-cell patch clamp of N-type Ca2+ current: 11.5 nM | recovery after washout (FIG. 5): 75%

ω-conotoxin MVIIA (peptide)
IC50 of dose-inhibition curve, whole-cell patch clamp of N-type Ca2+ current: 7.96 nM | recovery after washout (FIG. 5): 35%
